Test results reported in the supplement of paper PMC10065799, “High-throughput profiling of sequence recognition by tyrosine kinases and SH2 domains using bacterial peptide display” (eLife, 2023).

Tests used:
SHP2-C SH2 = experiment: SH2 binding enrichment of the phosphorylated peptide, bacterial display (enrichment ratio); higher = better substrate or ligand; peptides without Tyr show the background
c-Src SH2 = experiment: as above
Grb2 SH2 = Grb2 SH2 (UniProt P62993); experiment: as above
c-Src = experiment: phosphorylation enrichment, bacterial display (enrichment ratio); higher = better substrate or ligand; peptides without Tyr show the background
FGFR3 = FGFR3 (UniProt P22607); experiment: as above
EPHB1 = EPHB1 (UniProt P54762); experiment: as above
Jak2 = Jak2 (UniProt O60674); experiment: as above
Fer (mouse) = experiment: as above
Fes = Fes (UniProt P07332); experiment: as above
AncSZ = experiment: as above
c-Abl (mouse) = experiment: as above
MERTK = MERTK (UniProt Q12866); experiment: as above
FGFR1 = FGFR1 (UniProt P11362); experiment: as above
EPHB2 = EPHB2 (UniProt P29323); experiment: as above
Fyn = Fyn (UniProt P06241); experiment: as above
Hck = Hck (UniProt P08631); experiment: as above
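Throughout, for SH2 binding enrichment of the phosphorylated peptide, bacterial display: peptide library displayed on the E. coli surface as eCPX fusions, selected cells deep-sequenced, score is each peptide's frequency after selection divided by its frequency in the input.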
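Throughout, for phosphorylation enrichment, bacterial display: 11-residue human phosphosite peptides and single-mutation variants displayed on the E. coli surface, counted by deep sequencing, each peptide's frequency after selection divided by its frequency in the unselected input library; frequency after pTyr selection over input frequency; kinase dosed for 20-30% of maximal phosphorylation in three min.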

Chain of FGFR3 (P22607 whole entry, looked up): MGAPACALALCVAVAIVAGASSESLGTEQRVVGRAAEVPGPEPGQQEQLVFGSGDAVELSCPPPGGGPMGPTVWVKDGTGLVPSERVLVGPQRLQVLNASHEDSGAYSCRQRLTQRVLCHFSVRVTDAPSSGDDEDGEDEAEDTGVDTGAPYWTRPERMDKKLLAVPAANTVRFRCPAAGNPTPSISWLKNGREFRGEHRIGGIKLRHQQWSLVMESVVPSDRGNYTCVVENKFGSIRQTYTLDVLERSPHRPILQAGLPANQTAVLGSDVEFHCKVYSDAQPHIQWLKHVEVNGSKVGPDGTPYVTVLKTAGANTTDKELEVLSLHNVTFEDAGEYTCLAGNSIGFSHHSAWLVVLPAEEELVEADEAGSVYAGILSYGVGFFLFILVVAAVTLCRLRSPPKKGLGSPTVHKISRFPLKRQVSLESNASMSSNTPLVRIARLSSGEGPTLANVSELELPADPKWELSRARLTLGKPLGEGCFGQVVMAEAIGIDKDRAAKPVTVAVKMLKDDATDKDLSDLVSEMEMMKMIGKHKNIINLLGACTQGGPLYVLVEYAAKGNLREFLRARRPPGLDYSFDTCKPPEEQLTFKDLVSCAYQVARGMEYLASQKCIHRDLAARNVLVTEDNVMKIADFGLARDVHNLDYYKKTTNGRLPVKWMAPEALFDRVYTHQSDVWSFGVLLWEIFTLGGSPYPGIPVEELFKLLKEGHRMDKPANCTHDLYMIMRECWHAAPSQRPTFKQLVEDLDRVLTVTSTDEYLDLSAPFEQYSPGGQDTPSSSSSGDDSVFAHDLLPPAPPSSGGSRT
Chain of EPHB1 (P54762 whole entry, looked up): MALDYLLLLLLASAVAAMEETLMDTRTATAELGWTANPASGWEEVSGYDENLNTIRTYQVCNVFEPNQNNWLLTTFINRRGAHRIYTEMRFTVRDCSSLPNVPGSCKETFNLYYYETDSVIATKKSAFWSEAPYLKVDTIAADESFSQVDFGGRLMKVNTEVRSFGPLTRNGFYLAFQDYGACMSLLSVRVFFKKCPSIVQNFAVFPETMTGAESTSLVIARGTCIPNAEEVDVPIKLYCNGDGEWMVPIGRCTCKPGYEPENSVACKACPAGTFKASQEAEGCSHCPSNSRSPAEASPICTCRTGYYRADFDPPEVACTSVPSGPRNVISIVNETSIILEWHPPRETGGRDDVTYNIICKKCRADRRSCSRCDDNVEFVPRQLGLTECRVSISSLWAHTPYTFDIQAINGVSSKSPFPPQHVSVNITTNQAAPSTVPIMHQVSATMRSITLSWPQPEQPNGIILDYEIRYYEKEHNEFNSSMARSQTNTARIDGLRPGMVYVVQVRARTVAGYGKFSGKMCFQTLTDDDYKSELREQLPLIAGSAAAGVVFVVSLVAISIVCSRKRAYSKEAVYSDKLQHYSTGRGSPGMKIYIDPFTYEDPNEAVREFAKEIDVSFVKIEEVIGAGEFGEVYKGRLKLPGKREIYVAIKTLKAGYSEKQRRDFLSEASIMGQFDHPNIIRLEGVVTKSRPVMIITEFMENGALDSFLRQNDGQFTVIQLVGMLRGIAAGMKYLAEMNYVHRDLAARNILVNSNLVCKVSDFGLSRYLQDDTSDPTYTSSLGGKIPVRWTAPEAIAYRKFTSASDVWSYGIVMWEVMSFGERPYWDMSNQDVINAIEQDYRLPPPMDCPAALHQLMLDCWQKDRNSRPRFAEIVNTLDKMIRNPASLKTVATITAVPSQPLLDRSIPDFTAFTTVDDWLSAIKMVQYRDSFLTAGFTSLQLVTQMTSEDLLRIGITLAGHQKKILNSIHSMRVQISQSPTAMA
Chain of Fes (P07332 whole entry, looked up): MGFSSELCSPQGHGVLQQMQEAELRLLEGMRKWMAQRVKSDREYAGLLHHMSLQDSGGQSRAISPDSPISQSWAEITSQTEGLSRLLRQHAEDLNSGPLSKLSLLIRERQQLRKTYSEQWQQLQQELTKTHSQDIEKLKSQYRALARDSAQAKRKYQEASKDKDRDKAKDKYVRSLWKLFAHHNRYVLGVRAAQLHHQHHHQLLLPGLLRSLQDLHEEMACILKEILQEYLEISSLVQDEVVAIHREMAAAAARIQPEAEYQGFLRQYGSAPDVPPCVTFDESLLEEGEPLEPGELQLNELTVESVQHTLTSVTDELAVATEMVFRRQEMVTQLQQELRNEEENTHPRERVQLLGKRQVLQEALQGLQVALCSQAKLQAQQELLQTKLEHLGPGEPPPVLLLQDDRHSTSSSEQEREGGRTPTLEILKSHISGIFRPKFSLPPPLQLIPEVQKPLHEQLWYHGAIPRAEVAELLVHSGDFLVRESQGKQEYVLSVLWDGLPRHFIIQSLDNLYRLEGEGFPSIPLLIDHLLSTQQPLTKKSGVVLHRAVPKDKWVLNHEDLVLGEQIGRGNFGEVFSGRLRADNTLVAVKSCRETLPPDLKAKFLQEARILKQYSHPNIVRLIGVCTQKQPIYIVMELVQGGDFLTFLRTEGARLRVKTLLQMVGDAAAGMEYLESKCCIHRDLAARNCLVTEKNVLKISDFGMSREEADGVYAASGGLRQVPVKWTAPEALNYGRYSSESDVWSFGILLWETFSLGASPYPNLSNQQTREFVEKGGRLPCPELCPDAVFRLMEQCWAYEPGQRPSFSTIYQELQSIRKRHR
Chain of FGFR1 (P11362 whole entry, looked up): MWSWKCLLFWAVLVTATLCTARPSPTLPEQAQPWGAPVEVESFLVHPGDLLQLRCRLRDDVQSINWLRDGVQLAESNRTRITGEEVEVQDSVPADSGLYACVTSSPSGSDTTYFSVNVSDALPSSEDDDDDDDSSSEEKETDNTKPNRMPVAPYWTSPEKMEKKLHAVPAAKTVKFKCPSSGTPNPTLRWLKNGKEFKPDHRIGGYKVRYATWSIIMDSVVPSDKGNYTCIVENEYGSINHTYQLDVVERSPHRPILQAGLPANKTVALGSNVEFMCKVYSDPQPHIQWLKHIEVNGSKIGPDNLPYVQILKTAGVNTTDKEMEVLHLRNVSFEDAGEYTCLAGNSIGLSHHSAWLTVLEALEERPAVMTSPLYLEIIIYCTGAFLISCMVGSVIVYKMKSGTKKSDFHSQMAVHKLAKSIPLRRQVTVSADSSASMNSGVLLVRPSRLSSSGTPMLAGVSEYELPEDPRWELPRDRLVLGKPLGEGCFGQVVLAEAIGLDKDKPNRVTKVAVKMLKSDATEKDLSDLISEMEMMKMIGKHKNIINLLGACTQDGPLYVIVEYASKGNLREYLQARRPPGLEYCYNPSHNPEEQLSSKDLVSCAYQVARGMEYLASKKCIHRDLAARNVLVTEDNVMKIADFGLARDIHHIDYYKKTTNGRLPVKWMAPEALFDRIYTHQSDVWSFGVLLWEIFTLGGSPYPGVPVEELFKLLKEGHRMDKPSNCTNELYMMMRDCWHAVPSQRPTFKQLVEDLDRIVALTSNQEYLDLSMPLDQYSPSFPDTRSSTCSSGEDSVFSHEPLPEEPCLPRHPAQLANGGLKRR
Chain of Hck (P08631 whole entry, looked up, the tested form may be a part): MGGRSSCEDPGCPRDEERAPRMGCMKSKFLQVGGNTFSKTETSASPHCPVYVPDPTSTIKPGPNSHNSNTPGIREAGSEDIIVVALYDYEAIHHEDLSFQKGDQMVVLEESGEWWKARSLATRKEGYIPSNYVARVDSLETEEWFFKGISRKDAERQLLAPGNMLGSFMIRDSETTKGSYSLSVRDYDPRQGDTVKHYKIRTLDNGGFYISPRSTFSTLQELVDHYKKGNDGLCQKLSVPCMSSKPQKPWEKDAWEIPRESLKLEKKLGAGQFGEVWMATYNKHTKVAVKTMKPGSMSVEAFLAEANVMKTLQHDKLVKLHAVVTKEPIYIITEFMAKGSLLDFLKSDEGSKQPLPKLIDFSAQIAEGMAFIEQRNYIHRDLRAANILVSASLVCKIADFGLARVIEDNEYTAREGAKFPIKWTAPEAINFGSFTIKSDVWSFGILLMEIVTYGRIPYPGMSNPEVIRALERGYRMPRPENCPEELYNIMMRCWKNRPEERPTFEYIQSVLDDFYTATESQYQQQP
Chain of EPHB2 (P29323 whole entry, looked up): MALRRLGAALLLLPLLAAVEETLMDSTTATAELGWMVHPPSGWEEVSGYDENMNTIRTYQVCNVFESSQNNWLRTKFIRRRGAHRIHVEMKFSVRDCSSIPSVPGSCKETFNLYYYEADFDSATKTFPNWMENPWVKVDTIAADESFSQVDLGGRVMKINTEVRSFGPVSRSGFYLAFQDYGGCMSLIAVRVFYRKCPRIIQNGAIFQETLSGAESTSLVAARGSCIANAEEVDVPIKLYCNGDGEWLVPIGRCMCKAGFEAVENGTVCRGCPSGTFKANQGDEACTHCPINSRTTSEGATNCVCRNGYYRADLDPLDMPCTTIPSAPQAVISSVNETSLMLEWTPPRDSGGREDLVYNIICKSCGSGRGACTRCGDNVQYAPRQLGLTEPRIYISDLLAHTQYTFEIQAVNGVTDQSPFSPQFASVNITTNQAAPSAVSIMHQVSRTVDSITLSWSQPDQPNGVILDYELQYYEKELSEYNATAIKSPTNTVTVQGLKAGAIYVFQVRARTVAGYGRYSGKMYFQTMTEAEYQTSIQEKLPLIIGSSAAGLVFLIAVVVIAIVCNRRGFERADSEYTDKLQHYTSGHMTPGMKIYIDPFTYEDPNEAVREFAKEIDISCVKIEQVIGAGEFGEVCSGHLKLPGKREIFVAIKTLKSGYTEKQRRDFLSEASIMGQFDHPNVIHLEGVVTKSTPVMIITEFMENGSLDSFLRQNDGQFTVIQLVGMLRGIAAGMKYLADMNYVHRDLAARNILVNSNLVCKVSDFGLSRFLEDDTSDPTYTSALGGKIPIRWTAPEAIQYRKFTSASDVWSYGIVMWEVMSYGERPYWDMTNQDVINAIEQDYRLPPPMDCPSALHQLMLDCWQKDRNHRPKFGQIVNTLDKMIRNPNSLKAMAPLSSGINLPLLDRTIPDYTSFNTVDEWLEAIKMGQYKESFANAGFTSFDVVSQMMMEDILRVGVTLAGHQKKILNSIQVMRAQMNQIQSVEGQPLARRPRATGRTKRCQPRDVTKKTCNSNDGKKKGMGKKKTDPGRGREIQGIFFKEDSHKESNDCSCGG

Sequence | SH2 binding enrichment (SHP2-C SH2) | SH2 binding enrichment (c-Src SH2) | SH2 binding enrichment (Grb2 SH2) | phosphorylation enrichment (c-Src) | phosphorylation enrichment (FGFR3) | phosphorylation enrichment (EPHB1) | phosphorylation enrichment (Jak2) | phosphorylation enrichment (Fer (mouse)) | phosphorylation enrichment (Fes) | phosphorylation enrichment (AncSZ) | phosphorylation enrichment (c-Abl (mouse)) | phosphorylation enrichment (MERTK) | phosphorylation enrichment (FGFR1) | phosphorylation enrichment (EPHB2) | phosphorylation enrichment (Fyn) | phosphorylation enrichment (Hck)
LAVVDYIRRQK [ATM_Y1915_M1916I] | 0.461 | 0.338 | 0.441 | 1.21 | 0.92 | 0.918 | 0.855 | 0.839 | 1.24 | 1.06 | 1.37 | 0.863 | 0.791 | 1.42 | 0.649 | 0.749
KIDAKYKKKIK [WDR19_Y1230_E1235K] | 0.906 | 0.657 | 0.597 | 0.484 | 0.834 | 0.38 | 0.755 | 0.447 | 0.809 | 0.553 | 0.8 | 0.368 | 0.376 | 0.319 | 0.305 | 0.398
HESEIYCKVCF [CSRP3_Y57_YF] | 1.35 | 1.54 | 1.44 | 6.41 | 0.89 | 0.854 | 1.21 | 2.49 | 1.11 | 1.52 | 1.17 | 3.7 | 0.821 | 1.42 | 5.35 | 7.63
RRERDYTNLPS [CSF1R_Y923] | 0.485 | 0.486 | 0.519 | 0.668 | 0.541 | 0.447 | 0.628 | 0.474 | 0.561 | 2.88 | 0.692 | 0.558 | 0.493 | 0.548 | 0.651 | 0.62
LHVKMYNFLRS [ADGRG7_Y760_R756H] | 1.07 | 0.827 | 1.28 | 0.711 | 0.94 | 0.831 | 1.69 | 1.11 | 1.89 | 1.97 | 2.26 | 0.85 | 0.714 | 0.778 | 0.615 | 0.625

Continued, in another order:

SH2 binding enrichment (SHP2-C SH2) | SH2 binding enrichment (c-Src SH2) | SH2 binding enrichment (Grb2 SH2) | Sequence | phosphorylation enrichment (c-Src) | phosphorylation enrichment (FGFR3) | phosphorylation enrichment (EPHB1) | phosphorylation enrichment (Jak2) | phosphorylation enrichment (Fer (mouse)) | phosphorylation enrichment (Fes) | phosphorylation enrichment (AncSZ) | phosphorylation enrichment (c-Abl (mouse)) | phosphorylation enrichment (MERTK) | phosphorylation enrichment (FGFR1) | phosphorylation enrichment (EPHB2) | phosphorylation enrichment (Fyn) | phosphorylation enrichment (Hck)
0.889 | 0.835 | 0.833 | GISDEYHVIRR [GCDH_Y398_H403R] | 0.621 | 0.881 | 0.529 | 0.719 | 0.471 | 0.792 | 0.983 | 0.607 | 0.457 | 1.46 | 0.541 | 0.517 | 1.5
0.731 | 0.448 | 0.838 | SVICTYSPALN [TP53_Y126_T123I] | 0.58 | 0.779 | 0.59 | 1.03 | 0.651 | 1.44 | 1.36 | 0.97 | 0.438 | 0.61 | 0.673 | 0.546 | 0.523
0.642 | 0.477 | 0.847 | RSDEDYLFREE [POR_Y573_YF] | 0.836 | 1.34 | 0.865 | 1.66 | 0.891 | 2.36 | 1.47 | 1.31 | 0.592 | 0.914 | 0.964 | 0.768 | 0.983
